Experimental findings from patent US7741051B2, “Soluble ectodomain fragments of MET and uses thereof” (Medical Research Council, priority 2003, dated 2010) are described below.

The nature of test [1]: Binding of dimeric MET constructs to HiTrap Heparin HP column, NaCl gradient elution. The note with it: 50 mM phosphate, 150 mM NaCl, pH 7.4, linear NaCl gradient. Here is the method:
(§1) Immulon B 96 well plates were coated with recombinant, single chain (R494E) or two chain HGF/SF in 50 mM phosphate buffer, pH 6.0. Wells were blocked, incubated with dimeric MET constructs at the concentrations shown in FIGS. 2a and b and bound MET was detected with HRP-conjugated rabbit anti-human IgG (Dako P0214). For heparin binding, dimeric MET constructs were loaded on a HiTrap Heparin HP column (Amersham Biosciences 17-0406-01) in 50 mM phosphate, 150 mM NaCl, pH 7.4 and eluted with a linear gradient of NaCl as shown in FIGS. 2c and d.

In test [2] the target is T1, recombinant single chain HGF/SF (R494E) (human, UniProt P14210 32-728).
T1 construct: also called single chain (R494E) HGF/SF
T1 sequence (P14210 32-728 R494E limits assumed): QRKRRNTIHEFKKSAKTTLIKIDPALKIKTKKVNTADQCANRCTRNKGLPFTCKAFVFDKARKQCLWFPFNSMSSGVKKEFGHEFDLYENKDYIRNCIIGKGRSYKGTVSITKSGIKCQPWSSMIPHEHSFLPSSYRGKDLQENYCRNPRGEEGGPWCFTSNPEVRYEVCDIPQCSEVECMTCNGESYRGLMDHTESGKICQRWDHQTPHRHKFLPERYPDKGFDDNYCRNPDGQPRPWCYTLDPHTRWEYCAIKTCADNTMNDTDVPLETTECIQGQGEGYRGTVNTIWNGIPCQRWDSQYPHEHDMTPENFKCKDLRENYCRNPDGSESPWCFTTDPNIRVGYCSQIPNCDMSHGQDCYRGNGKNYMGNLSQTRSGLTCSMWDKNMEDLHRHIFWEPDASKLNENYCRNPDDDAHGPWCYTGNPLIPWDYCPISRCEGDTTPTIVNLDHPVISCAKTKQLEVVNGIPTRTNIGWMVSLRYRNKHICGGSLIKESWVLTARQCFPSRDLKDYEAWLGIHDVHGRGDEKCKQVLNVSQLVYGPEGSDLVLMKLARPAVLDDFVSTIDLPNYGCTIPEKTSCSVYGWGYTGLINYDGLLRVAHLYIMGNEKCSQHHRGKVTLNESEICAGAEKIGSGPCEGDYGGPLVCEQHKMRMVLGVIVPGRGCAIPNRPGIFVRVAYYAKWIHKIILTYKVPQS
Description: solid phase assay, HGF/SF coated, bound MET detected with HRP anti-human IgG. The procedure: as §1

Test [3] concerns the target T2, recombinant two chain HGF/SF (human, UniProt P14210 32-494; P14210 495-728).
T2 construct: also called mature (two-chain) HGF/SF
Described as above. Here is the method:
as §1

In test [4] the test system is single chain (R494E) or two chain HGF/SF. Put plainly: Solid phase binding of dimeric MET deletions to HGF/SF. The note with it: plates coated with single chain (R494E) or two chain HGF/SF; bound MET detected with HRP anti-human IgG. Here is the method: as §1
Chain of single chain (R494E) or two chain HGF/SF (P14210 32-493 limits assumed, stated change not applied): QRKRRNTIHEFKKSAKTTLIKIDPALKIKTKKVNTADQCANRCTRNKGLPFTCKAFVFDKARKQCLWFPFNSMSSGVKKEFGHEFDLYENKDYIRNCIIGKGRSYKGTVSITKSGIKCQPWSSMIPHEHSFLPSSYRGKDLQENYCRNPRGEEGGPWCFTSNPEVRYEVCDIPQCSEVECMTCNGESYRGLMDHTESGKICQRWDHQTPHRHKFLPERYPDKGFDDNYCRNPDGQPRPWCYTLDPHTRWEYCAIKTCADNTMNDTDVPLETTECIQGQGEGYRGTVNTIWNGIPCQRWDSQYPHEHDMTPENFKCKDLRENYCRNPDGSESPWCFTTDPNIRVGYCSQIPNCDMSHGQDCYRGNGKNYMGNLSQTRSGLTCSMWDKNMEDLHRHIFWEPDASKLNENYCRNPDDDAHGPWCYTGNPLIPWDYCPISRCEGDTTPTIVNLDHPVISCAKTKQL

T2 sequence (P14210 32-494 limits assumed, chain 1 of 2): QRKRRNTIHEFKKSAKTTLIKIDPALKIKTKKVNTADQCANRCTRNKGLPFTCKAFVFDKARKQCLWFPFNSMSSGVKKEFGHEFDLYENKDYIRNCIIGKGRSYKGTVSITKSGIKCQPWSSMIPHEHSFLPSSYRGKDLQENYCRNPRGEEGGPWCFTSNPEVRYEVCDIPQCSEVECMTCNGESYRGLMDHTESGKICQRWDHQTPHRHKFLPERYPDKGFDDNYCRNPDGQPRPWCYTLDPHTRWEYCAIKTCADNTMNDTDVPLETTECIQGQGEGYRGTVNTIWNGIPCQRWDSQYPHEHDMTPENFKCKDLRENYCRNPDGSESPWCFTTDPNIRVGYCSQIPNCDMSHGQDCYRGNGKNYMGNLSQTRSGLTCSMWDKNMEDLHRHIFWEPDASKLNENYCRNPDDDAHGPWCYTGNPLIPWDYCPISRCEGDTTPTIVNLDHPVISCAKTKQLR
T2 sequence (P14210 495-728 limits assumed, chain 2 of 2): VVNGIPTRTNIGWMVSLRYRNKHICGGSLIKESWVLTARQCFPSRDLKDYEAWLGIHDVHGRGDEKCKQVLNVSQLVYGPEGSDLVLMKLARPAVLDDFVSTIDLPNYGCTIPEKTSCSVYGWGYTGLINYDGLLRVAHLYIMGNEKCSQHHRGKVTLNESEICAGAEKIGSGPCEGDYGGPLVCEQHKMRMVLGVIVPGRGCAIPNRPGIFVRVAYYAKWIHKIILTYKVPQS

Turning to “HGF/SF: hepatocyte growth factor/scatter factor, ligand of MET”, in test [1], the “Binding to immobilised heparin” value is on record as “strong heparin binding”.

B1: MET 567-932GH (Fc fusion)
chain (part 1 of 2): KVFPNSAPLEGGTRLTICGWDFGFRRNNKFDLKKTRVLLGNESCTLTLSESTMNTLKCTVGPAMNKHFNMSIIISNGHGTTQYSTFSYVDPVITSISPKYGPMAGGTLLTLTGNYLNSGNSRHISIGGKTCTLKSVSNSILECYTPAQTISTEFAVKLKIDLANRETSIFSYREDPIVYEIHPTKSFISGGSTITGVGKNLNSVSVPRMVINVHEAGRNFTVACQHRSNSEIICCTTPSLQQLNLQLPLKTKAFFMLDGILSKYFDLIYVHNPVFKPFEKPVMISMGNENVLEIKGNDIDPEAVKGEVLKVGNKSCENIHLHSEAVLCTVPNDLLKLNSELNIEWKQAISSTVLGKVIVQPDQNFT
chain (part 2 of 2): HHHHHH
notes: IG leader left out; Dimer through the Fc; also called MET567-928GH; not shown: hinge, CH2 and CH3 domains of the human gamma1 antibody constant region
For the molecule B1, the binding result in test [2] and in test [3] was “no binding” throughout.

B2: MET567-928GH: dimeric C-terminal part of the MET ectodomain fused to human γ1 Fc, hexa-histidine tagged (protein)
chain (part 1 of 2): KVFPNSAPLEGGTRLTICGWDFGFRRNNKFDLKKTRVLLGNESCTLTLSESTMNTLKCTVGPAMNKHFNMSIIISNGHGTTQYSTFSYVDPVITSISPKYGPMAGGTLLTLTGNYLNSGNSRHISIGGKTCTLKSVSNSILECYTPAQTISTEFAVKLKIDLANRETSIFSYREDPIVYEIHPTKSFISGGSTITGVGKNLNSVSVPRMVINVHEAGRNFTVACQHRSNSEIICCTTPSLQQLNLQLPLKTKAFFMLDGILSKYFDLIYVHNPVFKPFEKPVMISMGNENVLEIKGNDIDPEAVKGEVLKVGNKSCENIHLHSEAVLCTVPNDLLKLNSELNIEWKQAISSTVLGKVIVQPDQNFT
chain (part 2 of 2): HHHHHH
modifications: left off: a dimerising Fc or GST
Consider B2, for which the “Binding to immobilised heparin” value in test [1] is given as “no binding”; in test [1] (listed as MET 567-928GH), “none”. In addition, the “Binding to HGF/SF” value in test [4] is on record as “no binding”.

B3: 25-519GH: dimeric MET aa 25-519 fused to human γ1 Fc, hexa-histidine tagged (protein)
chain: ECKEALAKSEMNVNMKYQLPNFTAETPIQNVILHEHHIFLGATNYIYVLNEEDLQKVAEYKTGPVLEHPDCFPCQDCSSKANLSGGVWKDNINMALVVDTYYDDQLISCGSVNRGTCQRHVFPHNHTADIQSEVHCIFSPQIEEPSQCPDCVVSALGAKVLSSVKDRFINFFVGNTINSSYFPDHPLHSISVRRLKETKDGFMFLTDQSYIDVLPEFRDSYPIKYVHAFESNNFIYFLTVQRETLDAQTFHTRIIRFCSINSGLHSYMEMPLECILTEKRKKR
chain (part 1 of 2): STKKEVFNILQAAYVSKPGAQLARQIGASLNDDILFGVFAQSKPDSAEPMDRSAMCAFPIKYVNDFFNKIVNKNNVRCLQHFYGPNHEHCFNRTLLRNSSGCEARRDEYRTEFTTALQRVDLFMGQFSEVLLTSISTFIKGDLTIANLGTSEGRFMQVVVSRSGPSTPHVNFLLDSHPVSPEVIVEHTLNQNGYTLVITGKKITKIPLNGLG
chain (part 2 of 2): HHHHHH
modifications: left off: a dimerising Fc or GST
On to B3, for which the “Binding to immobilised heparin” value in test [1] is “indistinguishable from full length MET”; in test [1] (listed as MET 25-519GH) it was “showed binding”. Moreover, in test [4], the “Binding to HGF/SF” value is “readily measurable”.

B4: 25-567GH: dimeric MET aa 25-567 fused to human γ1 Fc, hexa-histidine tagged (protein)
chain: ECKEALAKSEMNVNMKYQLPNFTAETPIQNVILHEHHIFLGATNYIYVLNEEDLQKVAEYKTGPVLEHPDCFPCQDCSSKANLSGGVWKDNINMALVVDTYYDDQLISCGSVNRGTCQRHVFPHNHTADIQSEVHCIFSPQIEEPSQCPDCVVSALGAKVLSSVKDRFINFFVGNTINSSYFPDHPLHSISVRRLKETKDGFMFLTDQSYIDVLPEFRDSYPIKYVHAFESNNFIYFLTVQRETLDAQTFHTRIIRFCSINSGLHSYMEMPLECILTEKRKKR
chain (part 1 of 2): STKKEVFNILQAAYVSKPGAQLARQIGASLNDDILFGVFAQSKPDSAEPMDRSAMCAFPIKYVNDFFNKIVNKNNVRCLQHFYGPNHEHCFNRTLLRNSSGCEARRDEYRTEFTTALQRVDLFMGQFSEVLLTSISTFIKGDLTIANLGTSEGRFMQVVVSRSGPSTPHVNFLLDSHPVSPEVIVEHTLNQNGYTLVITGKKITKIPLNGLGCRHFQSCSQCLSAPPFVQCGWCHDKCVRSEECLSGTWTQQICLPAIYK
chain (part 2 of 2): HHHHHH
modifications: left off: a dimerising Fc or GST
As to B4, the “Binding to HGF/SF” value in test [4] is listed as “readily measurable”.
